In patent US7919262B2, “14-3-3 proteins for diagnosis of Parkinson's disease” (The UAB Research Foundation, priority 2007, dated 2011):

Key:
[1] = test system: SK-N-BE(2)-M17 (M17) cells; test: Rotenone toxicity in stably transfected cell lines, LDH release; format: cell-based; details: stable overexpression, 48 hours; for protection against rotenone toxicity (LDH release): rotenone at varying concentrations
Method: Cell lines stably-transfected with either 14-3-3θ or empty vector were treated with varying concentrations of rotenone (0-25 μM) for 24 hours (FIG. 6A), 30 hours (FIG. 6B), or 48 hours (FIG. 6C). Cell death was assayed by LDH release into the culture media. LDH release into media was normalized to total LDH release for each well. […] Rater was blind to experimental condition. n=8 for each experimental condition. *p<0.05, ***p<0.001 (Bonferroni's multiple comparison test).
(§1) M17 cell lines stably-transfected with either a 14-3-3 isoform or empty vector were treated with varying concentrations of rotenone (0-25 μM) for 48 hours. Cell death was assayed by LDH release into the culture media. LDH release into media was normalized to total LDH release for each well. […] Results reflect two to three independent experiments with at least two replicates per experiment. *p<0.05, **p<0.01, ***p<0.001 (Bonferroni's multiple comparison test).
Additional studies were performed to evaluate the effect of 14-3-3 polypeptide isoforms in mammalian cells. In these studies, cDNA clones for the 14-3-3 polypeptide β, γ, ε, η, θ, and σ isoforms were subcloned into the mammalian expression vector pcDNA 3.1/V5/His (Invitrogen). The polypeptide expressed from this vector contains the particular 14-3-3 isoform with a V5 and a His6 tag at the C-terminal end. […] SK-N-BE(2)-M17 (M17) cells, a dopaminergic-producing human neuroblastoma cell line, were transfected with each isoform or empty vector using Superfect, and stably-transfected cells were selected for in the presence of G418.
The M17 14-3-3θ clones were examined for their resistance to rotenone (0-25 μM). M17 cell lines stably transfected with either 14-3-3θ or empty vector were treated with rotenone for 24 (FIG. 6A), 30 (FIG. 6B) or 48 hours (FIG. 6C). Cell death was assayed by […] (LDH) release into the culture media using the LDH assay kit from Roche. LDH release into media was normalized to total LDH release for each well. Results reflect three independent experiments with at least two replicates per experiment.
Stable M17 cell lines overexpressing these other isoforms were treated with rotenone at varying concentrations, and then cell death was assayed at 48 hours by LDH release. […]

M17 cells = test: MPP+ toxicity in stably transfected cell lines, LDH release; format: cell-based, human; details: stable overexpression; MPP+ 0-10 mM; 24 hours
Method: as §1, with “Cell” for “M17 cell”, “MPP+” for “rotenone (0-25 μM)”, “24” for “48”, “well. Lines overexpressing 14-3-3θ (FIG. 9A), 14-3-3ε (FIG. 9B), or 14-3-3γ (FIG. 9C) were more resistant to MPP+ in a dose-dependent manner compared to control stable cells.” for “well.”, “experiment.” for “experiment. *p<0.05,”
The 14-3-3 expressing M17 clones were also tested for resistance to the neurotoxin 1-methyl-4-phenylpyridinium ion (MPP+), which is a metalbolite of 1-methyl-4-phenyl-1,2,3,6-tetrahydropyridine (MPTP). M17 cells expressing the 14-3-3 isoforms were prepared as described. M17 cells were treated with MPP+ (0-10 mM) for 24 hours (FIGS. 9A-G). Cell death was assayed by LDH release into the culture media as described above.
(§2) Primers against each of the human 14-3-3 isoforms were designed using Primer3. Primers against 14-3-3β (NM_018753) were 5′ […] 3′ (forward; SEQ ID NO. 9) and 5′ […] 3′ (reverse; SEQ ID NO. 10). Primers against 14-3-3ε (NM_009536) were 5′ […] 3′ (forward; SEQ ID NO. 11) and 5′ […] 3′ (reverse; SEQ ID NO. 12). Primers against 14-3-3γ (NM_018871) were 5′ […] 3′ (forward; SEQ ID NO. 13) and 5′ […] 3′ (reverse; SEQ ID NO. 14). Primers against 14-3-3η (NM_011738) were 5′ […] 3′ (forward; SEQ ID NO. 15) and 5′ […] 3′ (reverse; SEQ ID NO. 16). Primers against 14-3-3θ (NM_011739) were 5′ […] 3′ (forward; SEQ ID NO. 17) and 5′ […] 3′ (reverse; SEQ ID NO. 18). Primers against 14-3-3σ (NM_018754) were 5′ […] 3′ (forward; SEQ ID NO. 19) and 5′ […] 3′ (reverse; SEQ ID NO. 20). Primers against 14-3-3ζ(NM_011740) were 5′ […] 3′ (forward; SEQ ID NO. 21) and 5′ […] 3′ (reverse; SEQ ID NO. 22). Primers against GAPDH were 5′ tggtgaagcaggeatctga 3′ (forward; SEQ ID NO. 23) and 5′ […] 3′ (reverse; SEQ ID NO. 24) and were used to normalize PCR results. • α-syn aggregation assay H4 cells were transfected with synphilin, α-syn/green fluorescent protein (synT), and either empty vector control or a 14-3-3 isoform using Superfect transfection reagent (Qiagen). 24 hours after transfection, cells were fixed with 4% paraformaldehyde and immunostained with a monoclonal antibody against α-syn (BD Transduction) and a secondary Alexa 488-conjugated goat anti-mouse antibody (Molecular Probes). All cells stained for α-syn were scored as positive or negative for α-syn aggregates, with the rater blind to experimental condition. • α-syn toxicity assay H4 cells were transfected with α-syn and either empty vector control or a 14-3-3 isoform using Superfect transfection reagent (Qiagen). 24 hours after transfection, toxicity was measured by the amount of adenylate kinase released into the media using the ToxiLight™ kit (Cambrex). • Creation of stable cell lines Each 14-3-3 isoform was subcloned into the mammalian expression vector mcDNA3.1/V5-His (Invitrogen). BE(2)-M17 cells were transfected with each isoform or empty vector using Superfect, and stably-transfected cells were selected for in the presence of G418. […] Protein concentrations of supernatants were determined by the bicinchoninic acid assay (BCA; Pierce, Rockford, Ill.). […]

H4 cells = test: α-syn toxicity assay, adenylate kinase released into the media; format: cell-based; details: co-transfected with wildtype α-syn; 24 hours after transfection; vs empty vector
Method: Briefly, H4 cells were transfected with wildtype α-syn and each of the 14-3-3 polypeptide isoforms or empty vector controls as discussed above. Twenty-four hours after transfection, cell death was assayed by adenylate kinase activity in the media (n=4, *p<0.05, **p<0.01, ***p<0.001).
as §2, with “3′ (reverse; SEQ ID NO. 24) and were used to normalize PCR results. • α-syn aggregation assay H4 cells were transfected with synphilin, α-syn/green fluorescent protein (synT), and either empty vector control or a 14-3-3 isoform using Superfect transfection reagent (Qiagen). 24 hours after transfection, cells were fixed with 4% paraformaldehyde and immunostained with a monoclonal antibody against α-syn (BD Transduction) and a secondary Alexa 488-conjugated goat anti-mouse antibody (Molecular Probes).” left out, “(Invitrogen).” for “(Invitrogen). BE(2)-M17 cells were transfected with each isoform or empty vector using Superfect, and stably-transfected cells were selected for in the presence of G418.”

Molecule | rotenone-induced cell death, % of that in control cells ([1]; 1 μM rotenone, LDH release) | protection against rotenone toxicity (LDH release) [1] | protection against MPP+ toxicity (LDH release) (M17 cells) | effect on α-syn dependent cell death (adenylate kinase activity in the media) (H4 cells)
14-3-3β: 14-3-3 polypeptide β isoform, overexpressed from expression vector (protein, UniProt P31946 1-246, looked up) 14-3-3 protein beta/alpha: MTMDKSELVQKAKLAEQAERYDDMAAAMKAVTEQGHELSNEERNLLSVAYKNVVGARRSSWRVISSIEQKTERNEKKQQMGKEYREKIEAELQDICNDVLELLDKYLIPNATQPESKVFYLKMKGDYFRYLSEVASGDNKQTTVSNSQQAYQEAFEISKKEMQPTHPIRLGLALNFSVFYYEILNSPEKACSLAKTAFDEAIAELDTLNEESYKDSTLIMQLLRDNLTLWTSENQGDEGDAGEGEN | 75% | some protection | did not show any significant protection | –
14-3-3η: 14-3-3 polypeptide η isoform, overexpressed from expression vector (protein, UniProt Q04917 2-246, looked up) 14-3-3 protein eta: GDREQLLQRARLAEQAERYDDMASAMKAVTELNEPLSNEDRNLLSVAYKNVVGARRSSWRVISSIEQKTMADGNEKKLEKVKAYREKIEKELETVCNDVLSLLDKFLIKNCNDFQYESKVFYLKMKGDYYRYLAEVASGEKKNSVVEASEAAYKEAFEISKEQMQPTHPIRLGLALNFSVFYYEIQNAPEQACLLAKQAFDDAIAELDTLNEDSYKDSTLIMQLLRDNLTLWTSDQQDEEAGEGN | – | did not provide any protection | – | –
14-3-3σ: 14-3-3 polypeptide σ isoform, overexpressed from expression vector (protein, UniProt P31947 1-248, looked up) 14-3-3 protein sigma: MERASLIQKAKLAEQAERYEDMAAFMKGAVEKGEELSCEERNLLSVAYKNVVGGQRAAWRVLSSIEQKSNEEGSEEKGPEVREYREKVETELQGVCDTVLGLLDSHLIKEAGDAESRVFYLKMKGDYYRYLAEVATGDDKKRIIDSARSAYQEAMDISKKEMPPTNPIRLGLALNFSVFHYEIANSPEEAISLAKTTFDEAMADLHTLSEDSYKDSTLIMQLLRDNLTLWTADNAGEEGGEAPQEPQS | – | did not provide any protection | – | protective effects
